Among the data in patent publication US20070142277A1 are Aβ1-40 release, expressed as the percentage of control (cells transfected with the empty vector DNA) and Aβ release (% of control), Aβ1-40 ELISA of conditioned medium of transfected SH-SY5Y cells values, retold here.

In this assay the target is endogenously expressed APP isoforms in SH-SY5Y cells (human) (UniProt P05067). In words: cell-based or functional assay.
Chain of endogenously expressed APP isoforms in SH-SY5Y cells (human) (P05067 18-770): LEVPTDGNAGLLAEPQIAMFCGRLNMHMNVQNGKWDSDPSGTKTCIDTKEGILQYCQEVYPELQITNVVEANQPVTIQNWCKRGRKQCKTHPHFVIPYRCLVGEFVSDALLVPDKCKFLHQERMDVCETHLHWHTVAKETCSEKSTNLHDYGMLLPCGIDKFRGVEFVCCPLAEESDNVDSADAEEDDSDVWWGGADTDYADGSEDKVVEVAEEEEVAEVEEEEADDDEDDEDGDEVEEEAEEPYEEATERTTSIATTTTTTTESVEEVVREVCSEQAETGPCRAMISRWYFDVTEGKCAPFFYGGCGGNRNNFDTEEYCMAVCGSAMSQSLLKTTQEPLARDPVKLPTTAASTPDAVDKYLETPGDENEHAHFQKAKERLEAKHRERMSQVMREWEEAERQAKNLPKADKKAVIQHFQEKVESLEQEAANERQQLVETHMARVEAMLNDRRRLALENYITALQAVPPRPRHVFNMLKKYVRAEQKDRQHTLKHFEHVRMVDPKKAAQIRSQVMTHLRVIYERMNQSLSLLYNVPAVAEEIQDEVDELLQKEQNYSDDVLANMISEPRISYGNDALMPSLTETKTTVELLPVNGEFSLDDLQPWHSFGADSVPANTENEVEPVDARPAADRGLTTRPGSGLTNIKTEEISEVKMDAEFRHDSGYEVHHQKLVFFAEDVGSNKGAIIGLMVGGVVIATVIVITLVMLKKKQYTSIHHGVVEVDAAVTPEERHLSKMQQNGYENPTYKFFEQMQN

Consider “BACE455 (from UniProt P56817 46-501) (enzyme)”, for which the Aβ1-40 release, expressed as the percentage of control (cells transfected with the empty vector DNA) was 200 % of control and the Aβ release (% of control), Aβ1-40 ELISA of conditioned medium of transfected SH-SY5Y cells is 195 % of control.

As to “BACE501 (from UniProt P56817 46-501) (enzyme)”, the Aβ release (% of control), Aβ1-40 ELISA of conditioned medium of transfected SH-SY5Y cells was 193 % of control.
